In paper PMC8459933 one finds stoichiometry N data, which are given here for 2 substances.

Assay [1] concerns the target PltB subunit of typhoid toxin (Salmonella enterica serovar Typhi). The experiment in a line: cryo-EM structure.
Assay [2] deals with tagless PltB pentamer (Salmonella enterica serovar Typhi). The experiment in a line: SEC. (In general: In gel filtration, larger molecules generally elute earlier.)

“PltB subunit of typhoid toxin (natural protein)” returned a stoichiometry N in assay [1] of 5.

In the case of tagless PltB pentamer (natural protein), the stoichiometry N in assay [2] is 5.

The stoichiometry N is a count of units in the complex or per binding partner.
